Reference: patent US7235648B1, “Yeast cells engineered to produce pheromone system protein surrogates, and uses therefor” (Cadus Technologies, Inc., priority 1993, dated 2007)
Ends that are not written are not given here.

Experiments:
Assay type in all cases: cell-based
STE3 = target: T1, STE3 (Saccharomyces cerevisiae, UniProt P06783); test: Autocrine yeast (CY599/CY2012, ste2-STE3) growth on histidine-deficient medium plus aminotriazole, fus1-HIS3 readout; details: for ability of the peptide-encoding plasmid to confer the His phenotype on CY2012 (a-factor analogues): -His medium with 0.2 mM 3-aminotriazole, random a-factor library
T1 construct: fragment containing the entire coding region of STE3 flanked by the two newly introduced Spe I sites; expressed in transfected cells; host or cells: S. cerevisiae CY599 / CY2012 (ste2-STE3, chromosomal replacement with Cadus 1147)
T1 sequence (P06783 1-470): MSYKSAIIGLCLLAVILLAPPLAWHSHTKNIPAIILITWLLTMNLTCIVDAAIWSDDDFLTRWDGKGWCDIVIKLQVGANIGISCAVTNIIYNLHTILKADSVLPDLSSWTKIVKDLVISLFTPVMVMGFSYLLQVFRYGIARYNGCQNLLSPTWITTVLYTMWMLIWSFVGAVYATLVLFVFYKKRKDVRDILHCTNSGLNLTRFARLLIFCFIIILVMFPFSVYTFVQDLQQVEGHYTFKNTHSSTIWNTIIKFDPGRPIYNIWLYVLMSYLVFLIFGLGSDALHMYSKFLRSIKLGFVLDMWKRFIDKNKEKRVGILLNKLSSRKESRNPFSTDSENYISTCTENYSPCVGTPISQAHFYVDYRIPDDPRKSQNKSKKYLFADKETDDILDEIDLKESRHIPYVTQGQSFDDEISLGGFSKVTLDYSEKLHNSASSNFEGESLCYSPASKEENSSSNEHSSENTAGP
From the text: A MATa strain designed for the expression of peptides in the context of MFA1 (i.e., using the MFA1 expression vector, Cadus 1239) has been constructed. The genotype of this strain, designated CY599, is […] mfa1 mfa2 far1-1 his3::fus1-HIS3 ste2-STE3 ura3 met1 ade1 leu2. In this strain, Cadus 1147 (see above) was used to replace STE2 with a hybrid gene in which the STE3 coding region is under the control of expression elements which normally drive the expression of STE2. As a result, the a-factor receptor replaces the α-factor receptor. The genes which encode a-factor are deleted from this strain: the far1 mutation abrogates the arrest of growth which normally follows stimulation of the pheromone response pathway; and the FUS1-HIS3 hybrid gene (integrated at the HIS3 locus) provides a selectable signal of activation of the pheromone response pathway. CY599 cells were expected to be capable of the transport of a-factor or a-factor-like peptides encoded by oligonucleotides expressed from Cadus 1239 by virtue of expression of the endogenous yeast transporter, Ste6.
Experiments were performed to test: 1. the ability of Cadus 1239 to function as a vector for the expression of peptides encoded by synthetic oligonucleotides; 2. the suitability of the oligonucleotides, as designed, to direct the export of farnesylated, carboxymethylated peptides through the pathway normally used by a-factor; 3. the capacity of CY599 to export these peptides; and 4. the ability of CY599 to respond to those peptides that stimulate the pheromone response pathway by growing on selective media. These tests were performed using an oligonucleotide which encodes the 12 amino acid a-factor; specifically, the degenerate sequence (NNN)n in the oligo-nucleotide cloned into Cadus 1239 (see above) (with n=12) encodes the peptide component of a-factor pheromone. CY599 was transformed with the resulting plasmid (Cadus 1220), and transformants selected on uracil-deficient medium were transferred to histidine-deficient medium supplemented with a range of concentrations of aminotriazole. […] Cadus 1220 and the designed oligonucleotide are competent to direct the expression and export of a farnesylated, carboxy-methylated peptide encoded by the (NNN)n sequence of the synthetic oligonucleotide; and 2. CY599 can, in an autocrine fashion, respond to a farnesylated, carboxy-methylated peptide that stimulates its pheromone response pathway, in this case signaling initiates as a-factor binds to STE3.
An optimized version of strain 6 (Example 2 above) was derived. This yeast strain, CY2012 (MATa ste2-STE3 far1Δ1442 mfa1::LEU2 mfa2-lacZ fus1-HIS3 tht1-1 ura3 leu2 his3 trp1 ste2), was constructed as follows. […]

[1] = target: T2, wild-type human Mdr1 protein (Homo sapiens, UniProt P08183); test: Halo assay of a-factor transport by human Mdr1 in ste6 yeast on supersensitive MATα lawn; details: yeast deleted for STE6; halo size 1097>1079~1065>1019
T2 construct: expressed in transfected cells; host or cells: S. cerevisiae WKK6 (CY20, ste6::HIS3), plasmid Cadus 1097
Description: A “halo” assay was performed by patching WKK6 cells containing the various Mdr1 constructs (1019, 1065, 1079 & 1097) onto a lawn of Matα cells which are supersensitive to a-factor (CY32=MATα leu2-3.112 trp1-289 ura3-52 his3*1 sst2*2 GAL+).

STE2 receptor = target: T3, STE2 receptor (Saccharomyces cerevisiae, UniProt D6VTK4); test: Autocrine MATa yeast (CY588/CY1455) growth on histidine-deficient medium plus aminotriazole, fus1-HIS3 readout; details: -His medium with 1.0 mM or 2.5 mM aminotriazole
T3 construct: endogenous in cells; host or cells: S. cerevisiae MATa CY588 / CY1455
T3 sequence (D6VTK4 1-431): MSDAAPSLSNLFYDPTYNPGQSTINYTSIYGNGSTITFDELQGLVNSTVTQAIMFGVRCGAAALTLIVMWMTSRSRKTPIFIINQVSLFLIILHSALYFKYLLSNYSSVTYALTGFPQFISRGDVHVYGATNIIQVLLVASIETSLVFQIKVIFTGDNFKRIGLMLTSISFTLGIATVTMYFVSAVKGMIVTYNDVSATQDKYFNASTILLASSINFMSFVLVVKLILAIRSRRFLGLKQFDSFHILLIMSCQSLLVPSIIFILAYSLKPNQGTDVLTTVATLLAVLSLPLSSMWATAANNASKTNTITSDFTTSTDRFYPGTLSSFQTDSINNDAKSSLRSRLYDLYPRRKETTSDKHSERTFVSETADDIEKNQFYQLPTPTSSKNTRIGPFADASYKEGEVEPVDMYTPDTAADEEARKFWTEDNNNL

WKK6 cells = test: Valinomycin filter disk assay on lawns of ste6 yeast (WKK6) expressing human Mdr1 constructs; details: 5 mM valinomycin in DMSO on filter disk
Description: CADUS plasmids 1065, 1079 and 1097 as well as a URA3 control plasmid (pRS426=1019) were transformed into a ura3^−, ste6^− strain of yeast (WKK6=CY20=MATa ura3-1 leu2-3.112 his3-11.15 trp1-1 ade2-1 can1-100 ste6::HIS3, obtained from Karl Kuchler). Individual transformants were grown overnight in SD-URA media and lawns containing approximately 5×10^6 cells were poured onto YPD plates in 3 ml of YPD top agar. Sterile filter disks were placed on the plates after the top agar had solidified, and […] of DMSO or 5 mM valinomycin in DMSO were spotted onto the filter disks.

T2 sequence (P08183 whole entry): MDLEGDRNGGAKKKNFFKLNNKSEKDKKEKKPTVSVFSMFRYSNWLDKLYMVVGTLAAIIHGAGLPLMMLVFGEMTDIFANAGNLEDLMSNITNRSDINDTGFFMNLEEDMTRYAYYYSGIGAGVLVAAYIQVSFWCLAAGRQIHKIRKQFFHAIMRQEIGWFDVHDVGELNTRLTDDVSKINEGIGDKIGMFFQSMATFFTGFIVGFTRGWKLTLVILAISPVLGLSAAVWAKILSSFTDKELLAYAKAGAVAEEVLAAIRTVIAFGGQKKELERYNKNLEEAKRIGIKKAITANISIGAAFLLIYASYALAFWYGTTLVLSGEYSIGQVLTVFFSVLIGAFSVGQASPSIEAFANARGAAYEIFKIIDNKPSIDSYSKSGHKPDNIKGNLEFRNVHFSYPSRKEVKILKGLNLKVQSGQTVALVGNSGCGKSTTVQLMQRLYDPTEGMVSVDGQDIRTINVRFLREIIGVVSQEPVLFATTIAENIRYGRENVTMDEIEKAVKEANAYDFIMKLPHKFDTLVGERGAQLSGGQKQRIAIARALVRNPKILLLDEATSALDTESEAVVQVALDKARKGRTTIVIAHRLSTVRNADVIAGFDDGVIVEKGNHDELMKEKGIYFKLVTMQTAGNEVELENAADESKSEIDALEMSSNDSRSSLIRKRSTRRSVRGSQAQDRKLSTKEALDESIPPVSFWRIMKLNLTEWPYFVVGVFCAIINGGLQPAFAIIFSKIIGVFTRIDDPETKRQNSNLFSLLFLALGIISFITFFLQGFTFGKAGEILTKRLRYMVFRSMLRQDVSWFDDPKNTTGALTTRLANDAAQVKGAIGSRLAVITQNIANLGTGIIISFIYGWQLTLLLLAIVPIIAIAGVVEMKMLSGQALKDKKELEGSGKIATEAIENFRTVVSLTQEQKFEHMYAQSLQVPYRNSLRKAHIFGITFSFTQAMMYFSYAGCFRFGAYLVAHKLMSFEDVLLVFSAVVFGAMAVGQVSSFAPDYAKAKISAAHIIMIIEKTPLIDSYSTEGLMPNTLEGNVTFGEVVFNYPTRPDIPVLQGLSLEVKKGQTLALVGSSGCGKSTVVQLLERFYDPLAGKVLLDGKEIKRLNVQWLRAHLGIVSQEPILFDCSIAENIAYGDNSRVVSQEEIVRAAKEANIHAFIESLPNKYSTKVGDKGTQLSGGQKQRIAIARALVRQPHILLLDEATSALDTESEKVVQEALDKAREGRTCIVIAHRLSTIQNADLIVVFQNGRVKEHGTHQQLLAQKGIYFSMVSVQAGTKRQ

Molecule | ability of the peptide-encoding plasmid to confer the His phenotype on CY2012 (a-factor analogues) (STE3) | agonist activity on the STE2 receptor, MFα-5.8 library (STE2 receptor) | other results
Tyr Ile Ile Lys Gly Val Phe Trp Asp Pro Ala (YIIKGVFWDPA; not fully specified (C-terminus); printed as Tyr Ile Ile Lys Gly Val Phe Trp Asp Pro Ala; also: C-terminal cysteine carboxymethylated) [a-factor, yeast dodecapeptide mating pheromone with C-terminal farnesylated, carboxymethylated cysteine, reference compound] |  |  | aminotriazole-resistant growth on histidine-deficient media (autocrine response, a-factor binds to STE3) (STE3; CY599 transformed with Cadus 1220, range of aminotriazole concentrations): enhanced aminotriazole-resistant growth; transport by wild-type human Mdr1 protein [1]: can be transported
WHWMELRPGQPMY [SEQ ID NO:51] |  | acted as agonists | 
YALFVHFFDIP [SEQ ID NO:53] | confer the His^− phenotype |  | 
CC(C)[C@@H]1NC(=O)[C@H](C)OC(=O)[C@@H](C(C)C)NC(=O)[C@@H](C(C)C)OC(=O)[C@H](C(C)C)NC(=O)[C@H](C)OC(=O)[C@@H](C(C)C)NC(=O)[C@@H](C(C)C)OC(=O)[C@H](C(C)C)NC(=O)[C@H](C)OC(=O)[C@@H](C(C)C)NC(=O)[C@@H](C(C)C)OC1=O [valinomycin] |  |  | resistance to valinomycin conferred by mutant Mdr1 (G185V) (WKK6 cells; WKK6 cells with plasmid 1079): weak resistance; resistance to valinomycin conferred by wild type Mdr1 (WKK6 cells; WKK6 cells with plasmid 1097): complete resistance
Trp His Trp Leu Gln Leu Thr Pro Gly Gln Pro Met Tyr (WHWLQLTPGQPMY) [SEQ ID NO:47] |  | acted as agonists | 
WHWLELMPGQPLY [SEQ ID NO49] |  | acted as agonists | 

Continued, in another order:

ability of the peptide-encoding plasmid to confer the His phenotype on CY2012 (a-factor analogues) (STE3) | Molecule | agonist activity on the STE2 receptor, MFα-5.8 library (STE2 receptor) | other results
confer the His^− phenotype | LMSPSFFFLPA [SEQ ID NO:57] |  | 
confer the His^− phenotype | FKGQVRFVVLA [SEQ ID NO:55] |  | 
